# In paper PMC12700808:
# Tests used:
# [1] = biological target: FG repeat domain of 669 residues with non-charged spacers and 36 FSFG motifs; experiment: partitioning into an FG phase (confocal laser scanning microscopy); as a1 but FG phases assembled from the SLFG or the FSFG repeat domain (stocks in 4 M guanidinium hydrochloride, diluted 50-fold)
# [2] = biological target: FG repeat domain of 669 residues with non-charged spacers and 36 FSFG motifs; experiment: FG phase partitioning assay
# [3] = biological target: Nup98-type FG domain comprising 52 perfect 12-mer GLFG repeat units (prf.GLFG52x12); experiment: FG phase partitioning assay
# [4] = biological target: Nup98-type FG domain comprising 52 perfect 12-mer GLFG repeat units (prf.GLFG52x12); experiment: FG phase partitioning assay; remark: listed apart in the source
# [5] = biological target: Nup98-type FG domain comprising 52 perfect 12-mer GLFG repeat units (prf.GLFG52x12); experiment: FG phase partitioning assay; remark: listed apart in the source
# [6] = biological target: Nup98-type FG domain comprising 52 perfect 12-mer GLFG repeat units (prf.GLFG52x12); experiment: FG phase partitioning assay; conditions: signal at rim of FG particles
# [7] = biological target: Nup98-type FG domain comprising 52 perfect 12-mer GLFG repeat units (prf.GLFG52x12); experiment: FG phase partitioning assay; remark: listed apart in the source
# [8] = fluorescence intensity at rim of FG particles
# [9] = fluorescence intensity in center of FG particles
# [10] = signal in center of FG particles
substance,measurement,setting,value
"20-nm pentamer-only spheres of CA Q9E (CA P1A+G60A+G61P background), EGFP-labelled (complex)",fold reduction of partitioning against WT,[1],< 100 fold
"20-nm pentamer-only spheres of CA H87Q (CA P1A+G60A+G61P background), EGFP-labelled (complex)",fold reduction of partitioning against WT,[1],< 100 fold
"20-nm T1 pentamer-only capsid spheres (CA P1A+G60A+G61P), EGFP-labelled G89V",response,[2]; [8],31000
same,response,[2]; [9],34000
same,percent of parent,[2]; signal at rim of FG particles,160%
same,percent of parent,[2]; [10],170%
"20-nm pentamer-only spheres of CA G94D (CA P1A+G60A+G61P background), EGFP-labelled (complex)",fold reduction of partitioning against WT,[1],< 100 fold
"conical CLPs (capsid-like particles) of wild-type CA (CA-P1A), filled with sinGFP4a R97K",percent of parent,[3]; signal at rim of FG particles,90%
same,percent of parent,[3]; [10],20%
same,response,[4]; [8],20000
same,response,[4]; [9],5000
"conical CLPs (capsid-like particles) of wild-type CA (CA-P1A), filled with sinGFP4a Q9E",response,[3]; [8],24000
same,response,[3]; [9],3500
same,percent of parent,[3]; signal at rim of FG particles,120%
same,percent of parent,[3]; [10],14%
same,percent of parent,[5]; signal at rim of FG particles,89%
same,percent of parent,[5]; [10],13%
same,response,[4]; [8],26000
same,response,[4]; [9],3400
"conical CLPs (capsid-like particles) of wild-type CA (CA-P1A), filled with sinGFP4a N57A",percent of parent,[6],80%
same,response,[3]; [8],23000
same,response,[3]; [9],1800
same,percent of parent,[3]; signal at rim of FG particles,85%
same,percent of parent,[3]; [10],7%
same,response,[7]; [8],21000
same,response,[7]; [9],1600
"conical CLPs (capsid-like particles) of wild-type CA (CA-P1A), filled with sinGFP4a Q9E; A92E",response,[3]; [8],9700
same,response,[3]; [9],660
same,percent of parent,[5]; signal at rim of FG particles,36%
same,percent of parent,[5]; [10],2.5%
"20-nm pentamer-only spheres of CA A92E (CA P1A+G60A+G61P background), EGFP-labelled (complex)",fold reduction of partitioning against WT,[1],< 100 fold
"conical CLPs (capsid-like particles) of wild-type CA (CA-P1A), filled with sinGFP4a P123E",percent of parent,[3]; signal at rim of FG particles,80%
same,response,[4]; [8],17000
same,response,[4]; [9],7400
"conical CLPs (capsid-like particles) of wild-type CA (CA-P1A), filled with sinGFP4a V86E; A88E; I91E; A92E",response,[3]; [8],260
same,response,[3]; [9],190
same,percent of parent,[5]; signal at rim of FG particles,1%
same,percent of parent,[5]; [10],0.7%
"conical CLPs (capsid-like particles) of wild-type CA (CA-P1A), filled with sinGFP4a P90A",percent of parent,[6],110%
same,response,[7]; [8],29000
same,response,[7]; [9],32000
"20-nm T1 pentamer-only capsid spheres (CA P1A+G60A+G61P), EGFP-labelled P90A",response,[2]; [8],45000
same,response,[2]; [9],51000
same,percent of parent,[2]; signal at rim of FG particles,240%
same,percent of parent,[2]; [10],260%
"CLPs of CA G89V, filled with sinGFP4a (complex)",fold partitioning against wild type,[1],4 fold
"conical CLPs (capsid-like particles) of wild-type CA (CA-P1A), filled with sinGFP4a H87Q; A92E; G94D",response,[3]; [8],8200
same,response,[3]; [9],670
same,percent of parent,[5]; [10],2.6%
